The subject of one test is T2 Arabidopsis. The test is described as follows: T2 Arabidopsis events response to glyphosate applied postemergence, visual % injury. Conditions: T2 Arabidopsis single copy events. Format: in vivo, Arabidopsis thaliana. From the text: The second generation plants (T2) of selected T1 Arabidopsis events which contained low copy numbers of the dgt-28 transgene were further characterized for glyphosate tolerance. Glyphosate was applied as described previously. The response of the plants is presented in terms of % visual injury 2 weeks after treatment (WAT). […] An arithmetic mean and standard deviation are presented for each construct used for Arabidopsis transformation. The range in individual response is also indicated in the last column for each rate and transformation. Wild-type, non-transformed Arabidopsis (cv. Columbia) served as a glyphosate sensitive control. In the T2 generation hemizygous and homozygous plants were available for testing for each event and therefore were included for each rate of glyphosate tested. Hemizygous plants contain two different alleles at a locus as compared to homozygous plants which contain the same two alleles at a locus. Variability of response to glyphosate is expected in the T2 generation as a result of the difference in gene dosage for hemizygous as compared to homozygous plants. The variability in response to glyphosate is reflected in the standard deviation and range of response.

Test [1] has as its system chloroplasts of the maize protoplast. The test is described as follows: Maize protoplast transient assay of TraP14-GFP (microscopy). Format: cell-based, Zea mays. The conditions noted are these: TraP14-GFP fusion; microscopy after 12 hours of incubation. The source says:
The Trap14v2 chimeric chloroplast transit peptide sequence (SEQ ID NO:8) were cloned upstream of the green fluorescent protein gene and incorporated into construct pDAB109902 (FIG. 4) for testing via the maize protoplast transient in planta assay. The resulting constructs contained a single plant transcription unit (PTU). The first PTU was comprised of the Zea mays Ubiquitin 1 promoter (ZmUbi1 promoter; Christensen, A., Sharrock R., and Quail P., (1992) Maize polyubiquitin genes: structure, thermal perturbation of expression and transcript splicing, and promoter activity following transfer to protoplasts by electroporation, Plant Molecular Biology, 18:675-689), TraP-green fluorescent protein fusion gene (TraP14-GFP; U.S. Pat. No. 7,678,893), and Zea mays Peroxidase 5 3′ untranslated region (ZmPer5 3′UTR; U.S. Pat. No. 6,384,207). The constructs were confirmed via restriction enzyme digestion and sequencing.
Seed of Zea mays var. B104 were surface sterilized by shaking vigorously in 50% Clorox (3% sodium hypochlorite), containing 2-3 drops of Tween 20, for about 20 minutes. […]
Transfection of 100 to 500 μl of protoplasts (1−5×10^5) was completed by adding the protoplasts to a 2 ml microfuge tube containing about 40 μg of plasmid DNA (pDAB106597), at room temperature. […] Fluorescence of GFP was viewed by microscopy after 12 hours of incubation. […]

Entries after “also recorded” stand apart in the source; their conditions may differ.

B1: TraP5 v2: chloroplast transit peptide fused to dgt-28 (protein)
chain: MQLLNQRQALRLGRSSASKNQQVAPLASRPASSLSVSASSVAPAPACSAPAGAGRRAVVVRA
modifications: Chloroplast Transit Peptide
In the case of B1, the “tolerance to glyphosate” value with T2 Arabidopsis is “did not provide robust tolerance to glyphosate”.

B2: TraP14: chimeric chloroplast transit peptide (SEQ ID NO:3): N-terminus from Dunaliella salina GPDH, C-terminus from D. salina EPSPS (protein)
chain: MILGSSPTLPHASHPARPGPARPISVNDVVPHVYSAPLSVARRSCSKSSIRSTRRLQTTVCS
modifications: chimeric TraP14 fusion protein
Take B2: in test [1], the “translocation of GFP into chloroplasts” value is recorded as “accumulated within the chloroplasts; also recorded: successfully targeted GFP to maize chloroplasts”.

(Values after US9493780B2, “Chloroplast transit peptide” (Dow AgroSciences LLC, priority 2012, dated 2016).)
